Test results reported in patent publication US9624506B2, “Glyphosate resistance enhancement” (Keygene N.V., priority 2011, dated 2017).
Substitutions are numbered along the chain they refer to. In names and notes the source's numbering stands. Entries after “also recorded” stand apart in the source; their conditions may differ.

B1: T42M: T42M mutation in Salmonella EPSPS enzyme (protein, UniProt P07637 1-427, looked up, variant T42M)
3-phosphoshikimate …: MESLTLQPIARVDGAINLPGSKSVSNRALLLAALACGKTALMNLLDSDDVRHMLNALSALGINYTLSADRTRCDITGNGGALRAPGALELFLGNAGTAMRPLAAALCLGQNEIVLTGEPRMKERPIGHLVDSLRQGGANIDYLEQENYPPLRLRGGFTGGDIEVDGSVSSQFLTALLMTAPLAPKDTIIRVKGELVSKPYIDITLNLMKTFGVEIANHHYQQFVVKGGQQYHSPGRYLVEGDASSASYFLAAGAIKGGTVKVTGIGRKSMQGDIRFADVLEKMGATITWGDDFIACTRGELHAIDMDMNHIPDAAMTIATTALFAKGTTTLRNIYNWRVKETDRLFAMATELRKVGAEVEEGHDYIRITPPAKLQHADIGTYNDHRMAMCFSLVALSDTPVTILDPKCTAKTFPDYFEQLARMSTPA
B2: P106L: A. thaliana EPSPS with Proline at position 106 changed into Leucine (SEQ ID NO:12) (protein, listed as Arabidopsis thaliana)
chain: MAQVSRICNGVQNPSLISNLSKSSQRKSPLSVSLKTQQHPRAYPISSSWGLKKSGMTLIGSELRPLKVMSSVSTAEKASEIVLQPIREISGLIKLPGSKSLSNRILLLAALSEGTTVVDNLLNSDDINYMLDALKRLGLNVETDSENNRAVVEGCGGIFPASIDSKSDIELYLGNAGTAMRLLTAAVTAAGGNASYVLDGVPRMRERPIGDLVVGLKQLGADVECTLGTNCPPVRVNANGGLPGGKVKLSGSISSQYLTALLMSAPLALGDVEIEIVDKLISVPYVEMTLKLMERFGVSVEHSDSWDRFFVKGGQKYKSPGNAYVEGDASSASYFLAGAAITGETVTVEGCGTTSLQGDVKFAEVLEKMGCKVSWTENSVTVTGPPRDAFGMRHLRAIDVNMNKMPDVAMTLAVVALFADGPTTIRDVASWRVKETERMIAICTELRKLGATVEEGSDYCVITPPKKVKTAEIDTYDDHRMAMAFSLAACADVPITINDPGCTRKTFPDYFQVLERITKH
B3: N44D+S179N: A. thaliana EPSPS double mutant N44D and S179N (SEQ ID NO:16) (protein, listed as Arabidopsis thaliana)
chain: B2 chain with N120D, L182P, S255N
B4: wild type (WT): Arabidopsis thaliana EPSPS (At2g45300), unmutated, SEQ ID NO:9/10 (protein, listed as Arabidopsis thaliana)
chain: B2 chain with L182P
B5: N44D: A. thaliana EPSPS with Asparagine at position 44 changed into Aspartic Acid (SEQ ID NO:11) (protein, listed as Arabidopsis thaliana)
chain: B2 chain with N120D, L182P
B6: N44D+P106L: A. thaliana EPSPS double mutant N44D and P106L (SEQ ID NO:13) (protein, listed as Arabidopsis thaliana)
chain: B2 chain with N120D
B7: G101A: EPSPS with Glycine at position 101 changed into Alanine (position 96 in E. coli; SEQ ID NO:17) (protein, listed as Arabidopsis thaliana)
chain: B2 chain with G177A, L182P

Key:
[1] = Salmonella EPSPS; cited from earlier work
[2] = Salmonella EPSPS; cited from earlier work; remark: listed apart in the source
Arabidopsis thaliana = assay: Glyphosate tolerance of transgenic Arabidopsis lines (average seedling weight +Gly/-Gly); assay type: in vivo; details: transgenic Arabidopsis lines overexpressing EPSPS gene; MS20 medium, 400 μM glyphosate, 4 weeks
Experimental: The mutated Arabidopsis EPSPS genes tested in E. coli (see Example 1) were cloned into the binary vector pEARLEYGATE100 (The Plant J. 2006; 45:616-629). Briefly, the EPSPS genes were isolated as BamHI and SacI fragments comprising the complete ORF's and then inserted into the same unique sites present in the binary vector. […] This series of binary vectors were electroporated to the Agrobacterium tumefaciens strain GV2260 and bacterial colonies were selected on LB medium containing 100 μg/ml spectinomycin, using methods known to the skilled person.
Seeds of Arabidopsis thaliana (ecotype Colombia) were sown on soil and once germinated a single seedling was placed in a 5 cm×5 cm pot and allowed to grow until the first influorescence appeared. At this stage the plants were then transformed using the floral dip method. Briefly, the Agrobacterium strains were grown overnight in 50 ml liquid LB medium containing 100 μg/ml spectinomycin at 28° C. and then this culture was centrifuged at 4000 rpm for 10 minutes. The pellets were then resuspended in a 5% sucrose solution containing 0.02% Silwet (Lehle Seeds). The Arabidopsis plants were dipped into this culture and then incubated overnight in the dark at 25° C. The plants were then allowed to grow further in the greenhouse and after 7 days the dipping procedure was repeated. The plants were then allowed to set seed which was then germinated on soil. For selection of transformed Arabidopsis seedlings, a solution of glufosinate was prepared (0.1 mg/ml glufosinate ammonium+0.005% silwet) and sprayed on the seedlings. After 7 days the surviving seedlings were identified, grown to maturity and the seeds were collected.
We performed a segregation analysis on the seed of the transgenic lines to estimate the T-DNA copy number. Seed from each of the transgenic lines was sterilized with a 2% hypochlorite solution and washed with sterile water. Approximately 100 seeds per line were then placed on MS20 medium containing 0.1 mg/ml glufosinate ammonium and the number of surviving seedlings was scored after 20 days. The lines with a single T-DNA copy that segregated […] (resistance:sensitivity) to the glufosinate were selected for further phenotyping.
Seeds from the transgenic Arabidopsis lines were sterilized and then placed on MS20 medium containing 0.1 mg/ml glufosinate ammonium and +/−400 μM glyphosate and were grown for 4 weeks. After this period the seedlings were removed from the growth plates and the average seedling weight was determined. The degree of glyphosate resistance for each line was determined by dividing the average seedling weight in the presence of glyphosate by the average seedling weight found in the absence of glyphosate.

E. coli = assay: Complementation assay in E. coli using A. thaliana EPSPS variants, growth in M9 medium with glyphosate; assay type: cell-based; details: 30 mM glyphosate; for glyphosate resistance (bacterial growth, OD600 over time): E. coli BL21 expressing A. thaliana EPSPS variant, M9 medium, 1 mM IPTG, 25° C.
Description: Each of these EPSPS variants was then cloned as a 1576 bps EcoRI-BamHI fragment into the vector pET302 NT HIS (Invitrogen, product K630203), fusing the EPSPS variants to a 6× His tag and allowing inducible protein expression with IPTG in E. coli. These constructs were introduced into the E. coli expression strain BL21 OAS (Invitrogen) for complementation assays.
E. coli is unable to grow in minimal M9 growth medium supplemented with glyphosate due to inhibition of the activity of the endogenous bacterial EPSP synthase AroA. Bacterial growth can be restored by complementation with a glyphosate resistant plant EPSPS gene. The E. coli strains containing the A. thaliana EPSPS variants were grown overnight in 10 ml LB medium containing 100 μg/ml carbenicillin (Duchefa). Strains were then diluted 4 fold in the same medium and allowed to grow for a further 4 hours. The […] of each culture was then measured and 1.5 ml culture was centrifuged at 4000 rpm for 10 minutes. The bacterial pellet was resuspended in 500 μl M9 medium (12.8 g/l Na2HPO4, 3.0 g/l KH2PO4, 0.5 g/l NaCl, 1.0 g/l NH4Cl, 2.0 g/l glucose, 0.4940 g/l MgSO4.7H2O, 15 mg/l CaCl2.2H2O, thiamine and 10 mg/l FeSO4.7H2O) used to inoculate 10 ml M9 medium containing 1 mM IPTG and 100 μg/ml carbenicillin and 30 mM glyphosate to an OD600 of 0.1. Identical cultures for each strain were also made lacking glyphosate and these were used to assess the growth of each strain without selection. The cultures were then grown at 25° C. and the OD600 was measured over time to assess bacterial growth (see FIG. 2).

[3] = E. coli EPSPS, Eschenburg et al. 2002; cited from earlier work

| Molecule | glyphosate resistance (ratio of average seedling weight +Gly/-Gly) (Arabidopsis thaliana) | glyphosate resistance (bacterial growth, OD600 over time) (E. coli) | further results |
| --- | --- | --- | --- |
| B1 |  |  | lower affinity for its normal substrate (PEP) [1]: 25 fold; higher tolerance for glyphosate [2]: 26 fold |
| B2 | reasonable resistance | good level of resistance |  |
| B3 | confers resistance |  |  |
| B4 |  | able to complement bacterial growth at later time points |  |
| B5 | lead to glyphosate resistance | some resistance to glyphosate; also recorded: provides tolerance to glyphosate |  |
| B6 | enhanced | strongly enhanced | enhancement of resistance levels (E. coli; N44D combined with P106L, after 18 hours of growth): 2.5 fold |
| B7 |  |  | Km of PEP [3]: increase |
